# Test results as given in publication PMC10384427.
# Target: SARS-CoV-2 N protein K65R, not SUMOylated (SARS-CoV-2) (UniProt P0DTC9)
# Test: FRET or BRET
substance,measurement,value
"SARS-CoV-2 N protein K65R, not SUMOylated (from UniProt P0DTC9 1-419) (natural protein)",Kd,1.38 µM
